# What was measured:
# [1] = target: Human trophoblast cell surface antigen 2 (Trop-2), on tumor cell lines (human) (UniProt P09758); assay: flow cytometry background, taken as human IgG1 isotype control; cell line CFPAC-1
# [2] = target: Human trophoblast cell surface antigen 2 (Trop-2), on tumor cell lines (human) (UniProt P09758); assay: flow cytometry background, taken as human IgG1 isotype control; cell line printed 'SK-WSS-7' (probably SK-MES-1)
# [3] = target: Human trophoblast cell surface antigen 2 (Trop-2), on tumor cell lines (human) (UniProt P09758); assay: flow cytometry background, taken as human IgG1 isotype control; cell line printed 'MCP-83-21' (probably MDA-MB-231)
# [4] = target: Human trophoblast cell surface antigen 2 (Trop-2), on tumor cell lines (human) (UniProt P09758); assay: flow cytometry background, taken as human IgG1 isotype control; cell line printed 'ECLC 214' (probably SCLC-21H)
# [5] = target: Human trophoblast cell surface antigen 2 (Trop-2), on tumor cell lines (human) (UniProt P09758); assay: flow cytometry background, taken as human IgG1 isotype control; cell line printed 'Cepes-3' (probably Capan-1)
# [6] = target: Human trophoblast cell surface antigen 2 (Trop-2), on tumor cell lines (human) (UniProt P09758); assay: flow cytometry background, taken as human IgG1 isotype control; cell line printed 'BKFC-Y' (probably BXPC-3)
# [7] = target: Human trophoblast cell surface antigen 2 (Trop-2), on tumor cell lines (human) (UniProt P09758); assay: flow cytometry background, taken as human IgG1 isotype control; cell line printed 'Cxoo-1' (probably Capan-1)
# [8] = target: Human trophoblast cell surface antigen 2 (Trop-2), on tumor cell lines (human) (UniProt P09758); assay: flow cytometry background, taken as human IgG1 isotype control; cell line printed 'CCAO205' (probably COLO205)
# [9] = target: Human trophoblast cell surface antigen 2 (Trop-2), on tumor cell lines (human) (UniProt P09758); assay: flow cytometry background, taken as human IgG1 isotype control; cell line printed 'SRM-C-21H' (probably SCLC-21H)
# [10] = target: Human trophoblast cell surface antigen 2 (Trop-2), on tumor cell lines (human) (UniProt P09758); assay: flow cytometry background, taken as human IgG1 isotype control; cell line printed 'HCl-11685' (probably NCI-H1688, called Trop-2-negative in paragraph 230)
# [11] = target: Human trophoblast cell surface antigen 2 (Trop-2), on tumor cell lines (human) (UniProt P09758); assay: flow cytometry background, taken as human IgG1 isotype control; cell line printed 'HCCHOI' (probably HCC1806)
# [12] = target: Human trophoblast cell surface antigen 2 (Trop-2), on tumor cell lines (human) (UniProt P09758); assay: flow cytometry background, taken as human IgG1 isotype control; cell line printed 'SK8RS' (probably SKBR3)
# [13] = target: Human trophoblast cell surface antigen 2 (Trop-2), on tumor cell lines (human) (UniProt P09758); assay: flow cytometry background, taken as human IgG1 isotype control; cell line printed 'SRM-M9-409' (probably MDA-MB-468)
# [14] = target: Human trophoblast cell surface antigen 2 (Trop-2), on tumor cell lines (human) (UniProt P09758); assay: flow cytometry background, taken as human IgG1 isotype control; cell line printed 'SK-M55-1' (probably SK-MES-1)
# [15] = target: Human trophoblast cell surface antigen 2 (Trop-2), on tumor cell lines (human) (UniProt P09758); assay: flow cytometry background, taken as human IgG1 isotype control; cell line printed 'HOC1906' (probably HCC1806)
# [16] = target: Human trophoblast cell surface antigen 2 (Trop-2), on tumor cell lines (human) (UniProt P09758); assay: flow cytometry background, taken as human IgG1 isotype control; cell line printed 'COXC28' (probably COLO205)
# [17] = target: Human trophoblast cell surface antigen 2 (Trop-2), on tumor cell lines (human) (UniProt P09758); assay: flow cytometry background, taken as human IgG1 isotype control; cell line printed 'SRM-K9-231' (probably MDA-MB-231)
# [18] = target: Human trophoblast cell surface antigen 2 (Trop-2), on tumor cell lines (human) (UniProt P09758); assay: flow cytometry background, taken as human IgG1 isotype control; cell line printed 'MOA-413-468' (probably MDA-MB-468)
# [19] = target: Human trophoblast cell surface antigen 2 (Trop-2), on tumor cell lines (human) (UniProt P09758); assay: flow cytometry background, taken as human IgG1 isotype control; cell line printed 'H123' (probably HT29)
# [20] = target: Human trophoblast cell surface antigen 2 (Trop-2), on tumor cell lines (human) (UniProt P09758); assay: flow cytometry background, taken as human IgG1 isotype control; cell line printed 'CPAC-1' (probably CFPAC-1)
# [21] = target: Human trophoblast cell surface antigen 2 (Trop-2), on tumor cell lines (human) (UniProt P09758); assay: flow cytometry background, taken as human IgG1 isotype control; cell line printed 'HOC2401' (probably NCIH2452)
# [22] = target: Human trophoblast cell surface antigen 2 (Trop-2), on tumor cell lines (human) (UniProt P09758); assay: flow cytometry background, taken as human IgG1 isotype control; cell line printed 'RMCA' (pancreas; probably BXPC-3)
# [23] = target: Human trophoblast cell surface antigen 2 (Trop-2), on tumor cell lines (human) (UniProt P09758); assay: flow cytometry background, taken as human IgG1 isotype control; cell line printed 'NCl-H1828' (probably NCI-H1688, called Trop-2-negative in paragraph 230)
# [24] = target: Human trophoblast cell surface antigen 2 (Trop-2), on tumor cell lines (human) (UniProt P09758); assay: flow cytometry background, taken as human IgG1 isotype control; cell line printed 'SKERS' (probably SKBR3)
# [25] = target: Human trophoblast cell surface antigen 2 (Trop-2), on tumor cell lines (human) (UniProt P09758); assay: flow cytometry background, taken as human IgG1 isotype control; cell line printed '3128' (probably HT29)
# [26] = Preparation of control ADC via hydrophobic VC linker (behaviour in solution); type: physicochemical; details: hydrophobic VC linker with PTX payload
# Protocol: A Troptargeted hRS7-VC-PTX molecule was prepared via a hydrophobic VC linker (FIG. 1a).
# UniProt P09758, sequence (P09758 27-323): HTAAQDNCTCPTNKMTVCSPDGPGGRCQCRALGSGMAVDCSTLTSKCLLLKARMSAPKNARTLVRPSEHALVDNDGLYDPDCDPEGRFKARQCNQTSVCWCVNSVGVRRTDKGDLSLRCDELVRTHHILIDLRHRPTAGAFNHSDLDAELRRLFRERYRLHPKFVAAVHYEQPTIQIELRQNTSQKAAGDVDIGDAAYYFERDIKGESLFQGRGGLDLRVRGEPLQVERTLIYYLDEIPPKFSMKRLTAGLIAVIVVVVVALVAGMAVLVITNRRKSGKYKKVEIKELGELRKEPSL
substance,measurement,setting,value
human IgG1 isotype control (antibody),MFI (background),[1],1580 MFI
same,MFI (background),[2],691 MFI
same,MFI (background),[3],1250 MFI
same,MFI (background),[4],1230 MFI
same,MFI (background),[5],3580 MFI
same,MFI (background),[6],1670 MFI
same,MFI (background),[7],3650 MFI
same,MFI (background),[8],1530 MFI
same,MFI (background),[9],1220 MFI
same,MFI (background),[10],868 MFI
same,MFI (background),[11],692 MFI
same,MFI (background),[12],1830 MFI
same,MFI (background),[13],378 MFI
same,MFI (background),[14],801 MFI
same,MFI (background),[15],192 MFI
same,MFI (background),[16],811 MFI
same,MFI (background),[17],1250 MFI
same,MFI (background),[18],678 MFI
same,MFI (background),[19],894 MFI
same,MFI (background),[20],1580 MFI
same,MFI (background),[21],1580 MFI
same,MFI (background),[22],1080 MFI
same,MFI (background),[23],480 MFI
same,MFI (background),[24],1850 MFI
same,MFI (background),[25],866 MFI
hRS7-VC-PTX,behaviour in solution during the preparation process,[26],completely precipitated out of solution

# — patent US20230346969A1, “INTERMEDIATE FOR PREPARING ANTIBODY-DRUG CONJUGATE (ADC), PREPARATION METHOD THEREFOR, AND USE THEREOF” (priority 2020, published 2023)
